Source: patent KR20180136327A (dated 2018)

Biological target: T1, Endothelin receptor type A (ET A) on cells (human, UniProt P25101 21-427)
T1 chain: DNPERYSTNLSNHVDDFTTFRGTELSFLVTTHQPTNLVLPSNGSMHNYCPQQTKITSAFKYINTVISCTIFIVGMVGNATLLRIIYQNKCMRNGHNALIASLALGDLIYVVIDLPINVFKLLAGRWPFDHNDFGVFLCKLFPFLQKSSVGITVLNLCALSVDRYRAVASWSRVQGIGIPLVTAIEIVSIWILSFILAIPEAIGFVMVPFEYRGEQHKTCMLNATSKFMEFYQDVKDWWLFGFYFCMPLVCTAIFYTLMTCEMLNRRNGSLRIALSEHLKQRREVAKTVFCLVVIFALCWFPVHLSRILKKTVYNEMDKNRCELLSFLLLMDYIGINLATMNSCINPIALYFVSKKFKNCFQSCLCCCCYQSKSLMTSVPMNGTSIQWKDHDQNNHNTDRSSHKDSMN
Assay: cell-based or functional assay

B1: 발굴항체 (anti-ET A human antibody, VH SEQ ID NO 12 / VL SEQ ID NO 13) fused to Cκ, scAb format (scFv, V domains shown)
VH: EVQLVESGAEVRKPGASVKVSCKASGYTFTSSDINWIRQATGQGLEWMGYMNPKNGNTDYAQKFQGRISMTRDSSISTAYMELSSLRSEDTAVYYCAKDRYGSGTYGFGMDVWGPGTLVTVS
VL: DIVMTQSPSAMSASVGDRVSITCRASQGINNYLAWFQQKPGKVPKRLMDVGSILQSGIPSRFRGRGSGTQFTLTISSLQAEDSGTYFCLQHNTYPLTFGPGTKVEIKR
  K i; inhibition of signalling induced by 10 nM ET-1 (cytosolic Ca2+, Fura-2-AM 340/380 nm ratio) in ET A expressed CHO-K1 stable cell line: 56 nM
  K i; inhibition of signalling induced by 10 nM ET-1 (cytosolic Ca2+, Fura-2-AM 340/380 nm ratio) in HT-29 colon cancer cells: 51 nM
